Test results reported in publication PMC8113585 (2020).

Target: SARS-CoV-2 full-length nucleocapsid (N) protein (N-FL: 1-419) (SARS-CoV-2, UniProt P0DTC9 1-419)
Test: ELISA

B1: human monoclonal antibody nCoV396, recombinant IgG1 (antibody, V domains shown)
VH: QVQLVESGGGVVQPGRSLRLSCAASGFTFSSYIMHWVRQAPGKGLEWVAVISYDGSNEAYADSVKGRFTISRDNSKNTLYLQMSSLRAEDTGVYYCARETGDYSSSWYDSWGRGTLVTVSS
VL: QLVLTQSPSASASLGASVKLTCTLSSGHSNYAIAWHQQQPEKGPRYLMKVNSDGSHTKGDGIPDRFSGSSSGAERYLTISSLQSEDEADYYCQTWGTGIQVFGGGTKLTVL
- EC50: 3.2 ng/mL
